21 molecules from patent publication US8969060B2, “Modified glucose dehydrogenase” (Ikeda Food Research Co., Ltd., priority 2011, dated 2015) can be followed below.

Substitutions are numbered along the chain they refer to. In names and notes the source's numbering stands.

Sequences and labels used below:
B1: G352E: modified GLD: SEQ ID NO: 1 with substitution G352E (protein, listed as Aspergillus terreus)
chain: MLGKLSFLSALSLAVAAPLSNSTSAKYDYIVIGGGTSGLAVANRLSEDPNVNVLILEAGGSVWNNPNVTNVDGYGLAFGSDIDWQYQSVNQPYGGNLSQVLRAGKALGGTSTINGMAYTRAEDVQIDAWETIGNTGWTWKNLFPYYRKSENFTVPTKSQTSLGASYEAGAHGHEGPLDVAFTQIESNNLTTYLNRTFQGMGLPWTEDVNGGKMRGFNLYPSTVNLEEYVREDAARAYYWPYKSRPNLHVLLNTFANRIVWDGEAHDGHITASGVEITSRNGTVRVINAEKEVIVSAGALKSPAILELSGIGNPSVLDKHNIPVKVNLPTVGENLQDQVNSHMDASGNTSISETKAVSYPDVYDVFGDEAESVAKQIRANLKQYAADTAKANGNIMKAADLERLFEVQYDLIFKGRVPIAEVLNYPGSATSVFAEFWALLPFARGSVHIGSSNPAEFPVINPNYFMLDWDAKSYVAVAKYIRRSFESYPLSSIVKESTPGYDVIPRNASEQSWKEWVFDKNYRSNFHPVGTAAMMPREIGGVVDERLNVYGTTNVRVVDASVLPFQVCGHLVSTLYAVAERAADLIKADAGRR
modifications: SIGNAL (1)..(19)
B2: S340G: modified GLD: SEQ ID NO: 1 with substitution S340G (protein, listed as Aspergillus terreus)
chain: B1 chain with S340G, E352G
modifications: SIGNAL (1)..(19)
B3: S340N: modified GLD: SEQ ID NO: 1 with substitution S340N (protein, listed as Aspergillus terreus)
chain: B1 chain with S340N, E352G
modifications: SIGNAL (1)..(19)
B4: H341C: modified GLD: SEQ ID NO: 1 with substitution H341C (protein, listed as Aspergillus terreus)
chain: B1 chain with H341C, E352G
modifications: SIGNAL (1)..(19)
B5: H341L: modified GLD: SEQ ID NO: 1 with substitution H341L (protein, listed as Aspergillus terreus)
chain: B1 chain with H341L, E352G
modifications: SIGNAL (1)..(19)
B6: H341N: modified GLD: SEQ ID NO: 1 with substitution H341N (protein, listed as Aspergillus terreus)
chain: B1 chain with H341N, E352G
modifications: SIGNAL (1)..(19)
B7: H341M: modified GLD: SEQ ID NO: 1 with substitution H341M (protein, listed as Aspergillus terreus)
chain: B1 chain with H341M, E352G
modifications: SIGNAL (1)..(19)
B8: S340V: modified GLD: SEQ ID NO: 1 with substitution S340V (protein, listed as Aspergillus terreus)
chain: B1 chain with S340V, E352G
modifications: SIGNAL (1)..(19)
B9: H341F: modified GLD: SEQ ID NO: 1 with substitution H341F (protein, listed as Aspergillus terreus)
chain: B1 chain with H341F, E352G
modifications: SIGNAL (1)..(19)
B10: S340W: modified GLD: SEQ ID NO: 1 with substitution S340W (protein, listed as Aspergillus terreus)
chain: B1 chain with S340W, E352G
modifications: SIGNAL (1)..(19)
B11: H341A: modified GLD: SEQ ID NO: 1 with substitution H341A (protein, listed as Aspergillus terreus)
chain: B1 chain with H341A, E352G
modifications: SIGNAL (1)..(19)
B12: H341I: modified GLD: SEQ ID NO: 1 with substitution H341I (protein, listed as Aspergillus terreus)
chain: B1 chain with H341I, E352G
modifications: SIGNAL (1)..(19)
B13: H341D: modified GLD: SEQ ID NO: 1 with substitution H341D (protein, listed as Aspergillus terreus)
chain: B1 chain with H341D, E352G
modifications: SIGNAL (1)..(19)
B14: H341E: modified GLD: SEQ ID NO: 1 with substitution H341E (protein, listed as Aspergillus terreus)
chain: B1 chain with H341E, E352G
modifications: SIGNAL (1)..(19)
B15: H341K: modified GLD: SEQ ID NO: 1 with substitution H341K (protein, listed as Aspergillus terreus)
chain: B1 chain with H341K, E352G
modifications: SIGNAL (1)..(19)
B16: H341G: modified GLD: SEQ ID NO: 1 with substitution H341G (protein, listed as Aspergillus terreus)
chain: B1 chain with H341G, E352G
modifications: SIGNAL (1)..(19)
B17: V431M: modified GLD: SEQ ID NO: 1 with substitution V431M (protein, listed as Aspergillus terreus)
chain: B1 chain with E352G, V431M
modifications: SIGNAL (1)..(19)
B18: V338 + Q382H: modified GLD: SEQ ID NO: 1 with substitutions at V338 and Q382H (protein, listed as Aspergillus terreus)
chain: B1 chain with V338M, E352G, Q382H
modifications: SIGNAL (1)..(19)
B19: L250V + S340G + D399N: modified GLD: SEQ ID NO: 1 with substitutions L250V, S340G, D399N (protein, listed as Aspergillus terreus)
chain: B1 chain with L250V, S340G, E352G, D399N
modifications: SIGNAL (1)..(19)
B20: S272T + A298V + A369T: modified GLD: SEQ ID NO: 1 with substitutions S272T, A298V, A369T (protein, listed as Aspergillus terreus)
chain: B1 chain with S272T, A298V, E352G, A369T
modifications: SIGNAL (1)..(19)
B21: H341R + G499S: modified GLD: SEQ ID NO: 1 with substitutions H341R, G499S (protein, listed as Aspergillus terreus)
chain: B1 chain with H341R, E352G, G499S
modifications: SIGNAL (1)..(19)

One data set can be described thus: Relative enzymatic activity of GLD (DCIP/1-m-PMS, plate reader, yeast culture supernatant) with proflavin hydrochloride present. Format: biochemical. To be noted: site-specific mutants, inhibitor final concentration 1 mM. How it is done: (§1) The susceptibility defined in the present specification is evaluated in terms of a relative activity that is determined in a system wherein the inhibitor coexists or not. The relative activity is derived from a relative value (%) of an enzymatic activity (a sample value) obtained with the addition of the inhibitor in the determination of the enzymatic activity described in the present specification as compared with an enzymatic activity (a blank value) as “100%” obtained without the addition of the inhibitor in the same determination. Thus, the higher the relative activity is, the less the susceptibility to the inhibitor is (or the more the susceptibility to the inhibitor is reduced), vice versa.
(§2) The enzymatic activity is determined in the following manner in Examples 3 and 6 wherein a plate reader (Japan Molecular Device Corporation, SpectraMax Plus384) is used. Thus, culture supernatant that had been diluted in advance with an appropriate magnification is added to a 96-well microplate with an amount of 100 μl per well. A reagent for the determination of the enzymatic activity comprising phosphate buffer (pH 7.0), 1.0 M D-glucose, 3 mM DCIP, 3 mM 1-m-PMS and methanol with a volume ratio of 0.1:1:0.14:0.2:0.06 is added to the 96-well microplate with an amount of 100 μl per well, and a change in the absorbance of DCIP at 600 nm (ΔABS/min) is then determined. The enzymatic activity can be calculated by conversion in proportion to a change in the absorbance of an enzyme solution for which the enzymatic activity has already been known by the above-mentioned activity determination procedure using the spectrophotometer.
(§3) In the following examples, a value of the enzymatic activity determined by the spectrometer or plate reader using the above reagent composition is considered as a blank value. On the other hand, a sample value is determined using a methanol solution comprising the inhibitor such as 1,10-phenanthroline or proflavin hydrochloride at a final concentration of 1 mM instead of the methanol. Enzymatic activity (unit/mL)=(−ΔABS/16.3)×3.0/0.05×(Dilution ratio of enzyme) [Equation 1]
In the case of B1, the “Relative Activity [%] Proflavin hydrochloride” value is reported as 36.3%.

Turning to B2, the “Relative Activity [%] Proflavin hydrochloride” value worked out at 49.5%.

As to B3, the “Relative Activity [%] Proflavin hydrochloride” value was 49.9%.

With B4, the “Relative Activity [%] Proflavin hydrochloride” value turned out to be 67.7%.

Consider B5, for which the “Relative Activity [%] Proflavin hydrochloride” value amounted to 66.9%.

For B6, the “Relative Activity [%] Proflavin hydrochloride” value is 81.5%.

With B7, the “Relative Activity [%] Proflavin hydrochloride” value is reported as 71.4%.

Turning to B8, the “Relative Activity [%] Proflavin hydrochloride” value was found to be 54.9%.

Consider B9, for which the “Relative Activity [%] Proflavin hydrochloride” value is listed as 67.5%.

For B10, the “Relative Activity [%] Proflavin hydrochloride” value was determined as 75.7%.

B11: the “Relative Activity [%] Proflavin hydrochloride” value turned out to be 75.8%.

With B12, the “Relative Activity [%] Proflavin hydrochloride” value is given as 64.4%.

Turning to B13, the “Relative Activity [%] Proflavin hydrochloride” value amounted to 64.5%.

For B14, the “Relative Activity [%] Proflavin hydrochloride” value is listed as 25.2%.

As for B15, the “Relative Activity [%] Proflavin hydrochloride” value worked out at 61.3%.

With B16, the “Relative Activity [%] Proflavin hydrochloride” value was 76.9%.

A further data set is described as follows: Relative enzymatic activity of GLD (DCIP/1-m-PMS, plate reader, yeast culture supernatant) with 1,10-phenanthroline present. Conditions: random-mutation mutants, sample value with inhibitor at 1 mM / blank value, inhibitor not named in Table 1. The data set is classed as biochemical. How it is done: as §1, §2, §3
Into each well of a 96-well microplate (manufactured by Nunc, Inc.), a YPD medium containing 125 μL of 1.0% (w/v) yeast extract (manufactured by BD), 2.0% (w/v) tryptone (manufactured by BD), 2.0% (w/v) glucose (manufactured by Wako Pure Chemical Industries, Ltd.) was dispensed, and the transformant colonies obtained in Example 2 were inoculated thereinto one by one.
After shaking culture at 30° C. and 1,000 rpm for 24 hours, the culture mixture was centrifuged and the supernatant was collected.
According to the above-mentioned method for the determination of enzymatic activity, a blank value and a sample value were determined using a plate reader, and the relative activity (%) was obtained by dividing the sample value by the blank value.
On to B1, for which the “Relative Activity” value was determined as 70.4%.

In the case of B17, the “Relative Activity” value worked out at 44.8%.

Consider B5, for which the “Relative Activity” value came out at 69.7%.

As to B18, the “Relative Activity” value is given as 60.0%.

Take B19: the “Relative Activity” value amounted to 43.4%.

Take B20: the “Relative Activity” value stood at 68.6%.

Take B21: the “Relative Activity” value is given as 71.9%.

Still in this data set, the particulars now being: site-specific mutants, inhibitor final concentration 1 mM.
Consider B1, for which the “Relative Activity [%] 1,10-Phenanthroline” value worked out at 91.7%.

As for B2, the “Relative Activity [%] 1,10-Phenanthroline” value was found to be 54.6%.

For B3, the “Relative Activity [%] 1,10-Phenanthroline” value came to 82.0%.

With B4, the “Relative Activity [%] 1,10-Phenanthroline” value is recorded as 95.4%.

With B5, the “Relative Activity [%] 1,10-Phenanthroline” value turned out to be 92.2%.

In the case of B6, the “Relative Activity [%] 1,10-Phenanthroline” value is 93.3%.

Consider B7, for which the “Relative Activity [%] 1,10-Phenanthroline” value is 95.4%.

In the case of B8, the “Relative Activity [%] 1,10-Phenanthroline” value is given as 84.2%.

For the molecule B9, the “Relative Activity [%] 1,10-Phenanthroline” value is recorded as 97.1%.

Take B10: the “Relative Activity [%] 1,10-Phenanthroline” value is on record as 97.7%.

Take B11: the “Relative Activity [%] 1,10-Phenanthroline” value came out at 95.1%.

For B12, the “Relative Activity [%] 1,10-Phenanthroline” value worked out at 97.4%.

Take B13: the “Relative Activity [%] 1,10-Phenanthroline” value worked out at 90.0%.

In the case of B14, the “Relative Activity [%] 1,10-Phenanthroline” value amounted to 88.4%.

Take B15: the “Relative Activity [%] 1,10-Phenanthroline” value stood at 99.2%.

On to B16, for which the “Relative Activity [%] 1,10-Phenanthroline” value is 93.8%.
